# Data published in paper PMC2853113.
# Where two headings read alike, the source gives them in different places.
# T1: YvoA-E61C-L242C (Bacillus subtilis, UniProt O34817 1-243, E61C;L242C)
# T1 sequence: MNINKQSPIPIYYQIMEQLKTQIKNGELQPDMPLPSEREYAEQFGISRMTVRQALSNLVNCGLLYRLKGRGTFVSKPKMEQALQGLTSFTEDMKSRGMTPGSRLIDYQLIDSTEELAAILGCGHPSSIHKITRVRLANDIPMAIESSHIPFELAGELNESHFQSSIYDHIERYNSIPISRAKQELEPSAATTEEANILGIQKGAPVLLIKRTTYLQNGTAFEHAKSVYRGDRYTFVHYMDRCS
# T2: YvoA wild-type (Bacillus subtilis, UniProt O34817 1-243)
# T2 sequence: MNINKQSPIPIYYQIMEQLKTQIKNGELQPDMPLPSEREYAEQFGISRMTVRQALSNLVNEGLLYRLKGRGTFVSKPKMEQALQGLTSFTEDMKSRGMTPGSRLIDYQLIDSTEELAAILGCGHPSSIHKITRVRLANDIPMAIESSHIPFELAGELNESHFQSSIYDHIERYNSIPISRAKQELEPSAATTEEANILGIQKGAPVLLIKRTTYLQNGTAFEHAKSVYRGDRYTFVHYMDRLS
# T3: YvoA-K24C-G97C (Bacillus subtilis, UniProt O34817 1-243, K24C;G97C)
# T3 sequence: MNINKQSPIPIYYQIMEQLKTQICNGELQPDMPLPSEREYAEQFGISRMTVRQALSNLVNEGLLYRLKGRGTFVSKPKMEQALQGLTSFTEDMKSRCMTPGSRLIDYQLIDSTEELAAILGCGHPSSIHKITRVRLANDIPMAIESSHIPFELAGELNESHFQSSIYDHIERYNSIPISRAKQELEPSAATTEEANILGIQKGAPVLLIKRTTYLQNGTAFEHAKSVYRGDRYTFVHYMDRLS
# Key:
# [1] = molecular target: T1, YvoA-E61C-L242C; test: analytical gel filtration
# [2] = molecular target: T2, YvoA wild-type; test: ITC
# [3] = molecular target: T2, YvoA wild-type; test: ITC; remark: listed apart in the source
# [4] = molecular target: T3, YvoA-K24C-G97C; test: analytical gel filtration
binder,measurement,setting,value
YvoA operator dsDNA (18mer) (dsDNA) DNA 1: ATTGGTATAGATCACTAG DNA 2: CTAGTGATCTATACCAAT,binding result,[1],binds
same,Kd,[2],131 nM
same,Kd,[3],2.9 nM
same,binding result,[4],binds
